This is an account of results in patent publication US20160289336A1 (F STAR BIOTECHNOLOGY, published 2016).

Experiment [1] has as its target T1, dimeric HER2 (extracellular domain of HER2 with Fc tag, R&D) (human, UniProt P04626 23-652).
T1 construct: Bought protein; also called HER2 ECD Fc-tag; Fc-tagged HER2 ECD; not shown: Fc tag of the bought R&D protein
Kind of experiment: ELISA, dimeric HER2 (ECD Fc-tag) coated at 2 µg/ml, biotinylated H561-4, Strep-HRP. On the procedure: (§1) Monomeric HER2 (HER2 ECD untagged) and dimeric HER2 (HER2 ECD Fc-tag) were immobilised at 2 μg/ml on a 96-well maxisorp plate (Nunc) in PBS overnight at 4° C. The plates were blocked for 1 hour with 200 μl of 5% BSA in PBS. […] The dilution series was removed and the plate was washed 3× with phosphate buffered saline with Tween 20 (PBST).
(§2) A 1:5000 dilution of Strep-HRP (Abcam ab) was prepared in 5% BSA and 100 μl was added to the plate and incubated for 1 hour at RT. The plate was then washed 3× with PBST before 100 μl of TMB (Roche) were added, and the plate incubated at RT for 2 mins. The reaction was stopped using 100 μl of 2 M H₂SO₄ and the plate was read at 450 nm.
For orientation: ELISA stands for enzyme-linked immunosorbent assay.

The target of experiment [2] is T2, monomeric HER2 (extracellular domain of HER2 without tag) (human, UniProt P04626 23-652).
T2 construct: also called HER2 ECD untagged; untagged HER2 ECD, in house
The experiment can be described thus: ELISA, monomeric HER2 (ECD untagged) coated at 2 µg/ml, biotinylated H561-4, Strep-HRP; monomeric HER2, not dimeric HER2. The protocol: as §1, §2

B1: antigen-binding Fc fragment H561-4 (designed binder)
chain: TCPPCPAPELLGGPSVFLFPPKPKDTLMISRTPEVTCVVVDVSHEDPEVKFNWYVDGVEVHNAKTKPREEQYNSTYRVVSVLTVLHQDWLNGKEYKCKVSNKALPAPIEKTISKAKGQPREPQVYTLPPSRDEFFTYWVSLTCLVKGFYPSDIAVEWESNGQPENNYKTTPPVLDSDGSFFLYSKLTVDRRRWTAGNVFSCSVMHEALHNHYTQKSLSLSPGK
notes: C-terminal K or GK may be clipped in manufacture; also called FS102; Fcab
B1: the EC50 (as a rule, the concentration at which the effect is half-maximal) is 1.7 nM in experiment [1] and 20.6 nM in experiment [2].
